Measured values from the nanobody polyreactivity screen of Harvey et al. (2022).

Assay: yeast display, Sf9 membrane polyspecificity reagent, FACS + sequencing; frameworks hold sequencing errors
How it was run: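 Synthetic nanobody libraries on Saccharomyces cerevisiae BJ5465 were galactose-induced for 36–48 hours, stained 1 hour at 4 °C with 10% biotinylated, detergent-solubilized Sf9 membrane reagent and enriched on streptavidin microbeads. FACS then separated cells into low and high (top ~1%) gates by anti-HA (expression) and streptavidin (reagent binding) fluorescence. Genes were colony-PCR amplified, MiSeq 2 × 250 sequenced and CDR-length filtered. A clone's polyreactivity label is that of its gate of origin.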

## QVQLVESGGGLVQAGGSLRLSCAASGSIFSYYAMGWYRQAPGKERELVAAISQNGGSTYYADSVKGRFTISRDNAKNTVYLQMNSLKPEDTAVYYCNAYSVYVRGEYWGQGTQVTVSS
  polyreactivity (PSR sort gate): high polyreactivity

## QVQLVESGGGLVQAGGSLRLSCAASGSIFSYYAMGWYRQAPGKERELVAAISQNGGSTYYADSVKGRFTNSRDNAKNSVSFQMNRLKAEETAVYYCYAYSVYVRGEYWGQGTQVTVSS
  polyreactivity (PSR sort gate): high polyreactivity

## QVQLVESGGGLVQAGGSLRLSCAASGSIFSYYAMGWYRQAPGKERELVAAISRSGASTSYADSVKGRFTISRDNAKNTVYLQMNSLKPEDTAVYYCAKRIYWRGSWGRYYYWGQGTQVTVSS
  polyreactivity (PSR sort gate): high polyreactivity

## QVQLVESGGGLVQAGGSLRLSCAASGSIFSYYAMGWYRQAPGKERELVAAITWSGTRTYYADSVKGRFTISRDNAKNTVYLQMNSLKPEDTAVSYCAADSSIRDAYWGQGTQVTVSS
  polyreactivity (PSR sort gate): low polyreactivity

## QVQLVESGGGLVQAGGSLRLSCAASGSIFSYYAMGWYRQAPGKERELVADISFTGDSTYYADSVKGRFTISRDNAKNTVYLQMNSLKPEDTAVYYCAKDEIIAVYFEYDYWGQGTQVTVSS
  polyreactivity (PSR sort gate): low polyreactivity

## QVQLVESGGGLVQAGGSLRLSCAASGSIFSYYAMGWYRQAPGKERELVASISWNGTSTYYADSVKGRFTISRDNAKNTVYLQMNSLKPEDTAVYYCNAVLSGWGYFYGLNYWGQGTQVTVSS
  polyreactivity (PSR sort gate): low polyreactivity

## QVQLVESGGGLVQAGGSLRLSCAASGSIFSYYDMGWYRQAPGKERELVADISSTGGSTYYADSVKGRFTISRDNAKNTVSIQMNSLKPEDTAVYYCAAEIGYWGQGTQVTVSS
  polyreactivity (PSR sort gate): high polyreactivity

## QVQLVESGGGLVQAGGSLRLSCAASGSIFSYYSMGWYRQAPGKERELVAAITSGDGTNYADSVKGRFTISRDYAKNTVYLQMNSLKPEDTAVYYCAADAVDSYWREDYWGQGTQVTVSS
  polyreactivity (PSR sort gate): low polyreactivity

## QVQLVESGGGLVQAGGSLRLSCAASGSIFSYYVMGWYRQAPGKERELVAAISWSGGSTYYADSVKGRFTISRDNAKNTVYLQMNSLKPEDTAVYYCAAGTYPYYWGQGTQVTVSS
  polyreactivity (PSR sort gate): low polyreactivity

## QVQLVESGGGLVQAGGSLRLSCAASGSIFSYYVMGWYRQAPGKERELVAAISYSGGRTYYADSVKGRFTISRDNAKNTVYLQMNSLKPEDTAVYYCAASRRVGEVSYYYWGQGTQVTVSS
  polyreactivity (PSR sort gate): high polyreactivity

## QVQLVESGGGLVQAGGSLRLSCAASGSIFSYYVMGWYRQAPGKERELVAAITRSGGSTYYADSVKGRFTISRDNAKNTVYLQMNSLKPEDTAVYDCNALWRVRGDYWGQGTQVTVSS
  polyreactivity (PSR sort gate): high polyreactivity

## QVQLVESGGGLVQAGGSLRLSCAASGSIFTCNAMGWYRQAPGKERELVAAISYISGGTYYADSVKGRFTISRDNAKNTVYLQMNSLKPEDTAVYYCAAVVYYYTYHYWGQGTQGTVSS
  polyreactivity (PSR sort gate): low polyreactivity

## QVQLVESGGGLVQAGGSLRLSCAASGSIFTFNAMGWYRQAPGKEREFVAAITRSGGRTYYADSVKGRFTISRDNAKNTVYLQMNSLKPEDTAVYYCAARPRGKYDYWGQGTQVTVSS
  polyreactivity (PSR sort gate): high polyreactivity

## QVQLVESGGGLVQAGGSLRLSCAASGSIFTFYALGWYRQAPGQERELVAAISYSGGSTYYADSVTGRFTISRDNAKITVYLQMNSLKPEDTAVFYCARDYFVDGPGYDYWGQGTQVTVSS
  polyreactivity (PSR sort gate): low polyreactivity

## QVQLVESGGGLVQAGGSLRLSCAASGSIFTFYAMGWYRQAPGKERELVAAISWSGGSTYYADSVKGRFTISRDNAKNTVYLQMNSLKPEDTAVYYCAARYYVYSSRAQYHHYDYWGQGTQVTVSS
  polyreactivity (PSR sort gate): high polyreactivity

## QVQLVESGGGLVQAGGSLRLSCAASGSIFTFYTMGWYRQAPGKERELVAAISQTGGRTYYADSVKGRFTISRDTAKNTVYLQMNSLKPEDTAVYYCDADYYYDISDWVYEYYYWGQGTQVTVSS
  polyreactivity (PSR sort gate): high polyreactivity

## QVQLVESGGGLVQAGGSLRLSCAASGSIFTFYTMGWYRQAPGKERELVATIRWSVGSTYYADSVKGRFTISRDNAKNTVYLQMNSLKPEDTAVYYCAADSQWSYPDYPGEYAYDYWGQGTQVSVSS
  polyreactivity (PSR sort gate): low polyreactivity

## QVQLVESGGGLVQAGGSLRLSCAASGSIFTGNAMGWYRQAPGKERELVAAIRRSGA
  polyreactivity (PSR sort gate): low polyreactivity

## QVQLVESGGGLVQAGGSLRLSCAASGSIFTGNAMGWYRQAPGKERELVAAISSTGTTNYADSVKGRFTISRDNAKNTVYLQMNSLKPEDTAVYYCARRWYSTWWYGYWGQGTQVTVSS
  polyreactivity (PSR sort gate): high polyreactivity

## QVQLVESGGGLVQAGGSLRLSCAASGSIFTGNAMGWYRQAPGKERELVAAITRTGSTNYADSVKGRFTISRDNAKNTVYLQMNSLKPEDTAVYYCATDRTFTISNYDYWGQGTQVTVSS
  polyreactivity (PSR sort gate): low polyreactivity

## QVQLVESGGGLVQAGGSLRLSCAASGSIFTGNAMGWYRQAPGKERELVASSTTTTDSTYYADSVKGRFTISRDNAKNTVYLQMNSLKPEDTAVYYCAAEYAVAWKYGLYFYFHFDYWGQGTQVTVSS
  polyreactivity (PSR sort gate): low polyreactivity

## QVQLVESGGGLVQAGGSLRLSCAASGSIFTGYAMGWYRQAPGKERELVAAISRSGGRTYYADSVKGRFTISRDNAKYTVYLQMNRLKPEDTAVYYCNSVVSPWNQGYYYWGQGTQVTVSS
  polyreactivity (PSR sort gate): high polyreactivity

## QVQLVESGGGLVQAGGSLRLSCAASGSIFTINTMGWYRPAPGKERELVAAITGSGGITYYADSVKGRFTISRDYAKNTVYLQLNTLKPEDTAVYYCAADYWWTIPEEPQGLGAVDYWGLGTQVTVSS
  polyreactivity (PSR sort gate): low polyreactivity

## QVQLVESGGGLVQAGGSLRLSCAASGSIFTINTMGWYRQAPGKERELVAAITGSGGITYYADSVKGRFTISRDNAKNTVYLQMNSLKPEDTAVYYCAADTGYVHDGYWGQGTQVTVSS
  polyreactivity (PSR sort gate): low polyreactivity

## QVQLVESGGGLVQAGGSLRLSCAASGSIFTKYAMGWYRQAPGKERELLAAITSSSGRTYYADSVKGRFTISRDNAKNTVYLQMNSLKPEDTAVYYCNRGKRVAVSYRPGGYDYWGQGTQVTVSS
  polyreactivity (PSR sort gate): high polyreactivity

## QVQLVESGGGLVQAGGSLRLSCAASGSIFTKYAMGWYRQAPGKERELVAAITWSGGRTYYADSVKGRFTISRDNAKNTVYLQMNSLKPEDTAVYYCAADFFRQGYYYWGQGTQVTVSS
  polyreactivity (PSR sort gate): high polyreactivity

## QVQLVESGGGLVQAGGSLRLSCAASGSIFTLNAMGWYRQAPGKERELVASISKNGGRTYYADSVKGRFTISRDNAKNTVYLQMNCLKPEDTAVYYCAARYYFTPSDGRRYDYWGQGTQVTVSS
  polyreactivity (PSR sort gate): high polyreactivity

## QVQLVESGGGLVQAGGSLRLSCAASGSIFTLYAMGWYRQAPGKERELVATINWSGGSTSYADSVKGRFTISRDNAKNTVYLQMNSLKPEDTAVYYCAADAGSYDALDYSDLLYDYWGQGTQVTVSS
  polyreactivity (PSR sort gate): low polyreactivity

## QVQLVESGGGLVQAGGSLRLSCAASGSIFTNYAMGWDRQAPGKERELVAAIRSSGGSTYYADSVKGRFTISRDNAKNTVYFQLNSLKPEDTAVYYCAARKSYKYPVNSAVGYWGQGTQVTVSS
  polyreactivity (PSR sort gate): high polyreactivity

## QVQLVESGGGLVQAGGSLRLSCAASGSIFTNYAMGWYRQAPGKERELVAAISQSGDTTYNADSVKGRFTISRDNAKNTVYLQMNSLKPEDTAVFFCAAQYYRWFYYWGQGTQVTVSS
  polyreactivity (PSR sort gate): high polyreactivity

## QVQLVESGGGLVQAGGSLRLSCAASGSIFTPNAMGWYRQAPGKERELVAAISWSGGGTYYADSVKGRFTISRDNAKNTVYLQMNSLKPEDTADYYCAVDFRYQDAYEYYWGQGTQVTVSS
  polyreactivity (PSR sort gate): low polyreactivity

## QVQLVESGGGLVQAGGSLRLSCAASGSIFTPNVMGWYRQAPGKERELVAAISQSGGSTFYADSVKGRFTISRDNAKNTVYLQMNSLKPEDTAVYYCAADDGYTYYYWGQGTQVTVSS
  polyreactivity (PSR sort gate): low polyreactivity

## QVQLVESGGGLVQAGGSLRLSCAASGSIFTPYAMGWYRQAPGTEREFVAVISWRVDSTYYADSVKGRFTISRDNAKNTVYLQMNSLKPEDTAVYYCAAKSYLLAPFGSGNRWSRYDYWGQGTQVTVSS
  polyreactivity (PSR sort gate): high polyreactivity

## QVQLVESGGGLVQAGGSLRLSCAASGSIFTPYTMGWYRQAPGKERELVAAISWGADSTYYADSVKGRFTISRDNAKNTVYLQMISLKPEDTAVYYCGDDYWGWSNGYEYWGQGTQVTVSS
  polyreactivity (PSR sort gate): low polyreactivity

## QVQLVESGGGLVQAGGSLRLSCAASGSIFTQNAMGWYRQAPGKERALVAAMSSGGSTNDADSVKGRFTISRDNAKNTVYLQMNSLTPEDTAVDYCAKSIDGWYWRRRRYDYWGQGTQVTVSS
  polyreactivity (PSR sort gate): low polyreactivity

## QVQLVESGGGLVQAGGSLRLSCAASGSIFTQYVMGWYRQAPGKERELGAAITWSGGNTYYADSVKGRFTISRDNAKNTVYLQMNSLKPEDTAVYYCAAYKPYSKYNYWGQGTQVTVSS
  polyreactivity (PSR sort gate): high polyreactivity

## QVQLVESGGGLVQAGGSLRLSCAASGSIFTRNAMGWYRQAPGKERELVARISARSGRTYYADSVKGRFTISRDNAKNTVYLQMNSLKPEDTAVYYFAVRYRGKYPFRYNYWGQGTQVTVSS
  polyreactivity (PSR sort gate): high polyreactivity

## QVQLVESGGGLVQAGGSLRLSCAASGSIFTRYAMGWYRQAPGKERELVAAISSGGSTYYADSVKGRFTISRDNAKNTVYLQMNSLKPEDTAVYYCAKDSGSYRVGIYEPFPYGYWGQGTQVTVSS
  polyreactivity (PSR sort gate): low polyreactivity

## QVQLVESGGGLVQAGGSLRLSCAASGSIFTRYAMGWYRQAPGKERELVAAISTSGGSTYYADSVKGRFTISRDNAKNTVYLQMNSLKPEDTAVYYCAADDQRRSGYYSWGQGTQVTVSS
  polyreactivity (PSR sort gate): high polyreactivity

## QVQLVESGGGLVQAGGSLRLSCAASGSIFTSNVMGWYRPAPGKERELVAAITITGTTNYADSVKGRFTISRDNAKNTVYLQMNSLIPVDTAVYYCAKDPVDLSPADWRADYDYWGQGTQVTVSS
  polyreactivity (PSR sort gate): low polyreactivity

## QVQLVESGGGLVQAGGSLRLSCAASGSIFTSYAMGWYRQAPGKERELVAGIDWSGGGTYYADSVKGRFTISRDNAKNTVYLQMNSLKPEDTAVYYCNADGPYTRYGPVDYWGQGTQVTVSS
  polyreactivity (PSR sort gate): low polyreactivity

## QVQLVESGGGLVQAGGSLRLSCAASGSIFTTYAMGWYRQAPGKERELVAAISSTSGSTYYADSVKGRFTISRDNAKNTVYLQMNSLKPEDTAVYYCAARGGYWGQGTQVTVSS
  polyreactivity (PSR sort gate): low polyreactivity

## QVQLVESGGGLVQAGGSLRLSCAASGSIFTVYAMGWYRPAPGKEREFVAAITGSGGRTYYADSVKGRFTISRDNAKNTVYLQMNSLKPEDTAVYYCAATTRPGYRYEGDYWGQGTQVTVSS
  polyreactivity (PSR sort gate): low polyreactivity
